These results are taken from patent US20130195871A1 (AbbVie / Abbott, published 2013).

B1: DVD2307 (bispecific antibody)
VH: EVQLVQSGGGLVKPGGSLRLSCAASGFTFSSFAMHWVRQAPGKGLEWISVIDTRGATYYADSVKGRFTISRDNAKNSLYLQMNSLRAEDTAVYYCARLGNFYYGMDVWGQGTTVTVSSASTKGPEVQLVESGGGLVQPGGSLRLSCAASGFSLTNYGVHWVRQAPGKGLEWLGVGWSGGNTDYNTPFTSRLTINKDNSKNTVYLQMNSLRAEDTAVYYCARALTWYDYEFAYWGQGTLVTVSS
VL: EIVLTQSPGTLSVSPGERATLSCRASQSIGSSLHWYQQKPGQAPRLLIKYASQSLSGIPDRFSGSGSGTDFTLTISRLEPEDFAVYYCHQSSRLPHTFGQGTKVEIKRTVAAPDILLTQSPGTLSLSPGERATLSCRASQSIYTNIHWYQQKPGQAPRLLIKYASESISGIPDRFSGSGSGTDFTLTISRLEPEDFAVYYCQQNLNWPTTFGQGTKLEIK
notes: DVD-Ig, outer AB077 / inner AB400
B2: DVD2299 (bispecific antibody)
VH: EVQLVQSGGGLVKPGGSLRLSCAASGFTFSSYAMHWVRQAPGKGLEWVAVISYDGSNKYYADSVKGRFTISRDNSKNTLYLQMNSLRAEDTAVYYCARFSGWPNNYYYYGMDVWGQGTTVTVSSASTKGPEVQLVESGGGLVQPGGSLRLSCAASGFSLTNYGVHWVRQAPGKGLEWLGVGWSGGNTDYNTPFTSRLTINKDNSKNTVYLQMNSLRAEDTAVYYCARALTWYDYEFAYWGQGTLVTVSS
VL: DVVMTQSPLSLPVTPGEPASISCRSSQSLLHSNGFNYVDWYLQKPGQSPHLLIYFGSYRASGVPDRFSGSGSGTDFTLKISRVEAEDVGVYYCMQALQTPPWTFGQGTKVEIRRTVAAPDILLTQSPGTLSLSPGERATLSCRASQSIYTNIHWYQQKPGQAPRLLIKYASESISGIPDRFSGSGSGTDFTLTISRLEPEDFAVYYCQQNLNWPTTFGQGTKLEIK
notes: DVD-Ig, outer AB005 / inner AB400
B3: DVD2303 (bispecific antibody)
VH: EVQLVESGGGLVQPGGSLRLSCAASGFTFTDYTMDWVRQAPGKGLEWVADVNPNSGGSIYNQRFKGRFTLSVDRSKNTLYLQMNSLRAEDTAVYYCARNLGPSFYFDYWGQGTLVTVSSASTKGPEVQLVESGGGLVQPGGSLRLSCAASGFSLTNYGVHWVRQAPGKGLEWLGVGWSGGNTDYNTPFTSRLTINKDNSKNTVYLQMNSLRAEDTAVYYCARALTWYDYEFAYWGQGTLVTVSS
VL: DIQMTQSPSSLSASVGDRVTITCKASQDVSIGVAWYQQKPGKAPKLLIYSASYRYTGVPSRFSGSGSGTDFTLTISSLQPEDFATYYCQQYYIYPYTFGQGTKVEIKRTVAAPDILLTQSPGTLSLSPGERATLSCRASQSIYTNIHWYQQKPGQAPRLLIKYASESISGIPDRFSGSGSGTDFTLTISRLEPEDFAVYYCQQNLNWPTTFGQGTKLEIK
notes: DVD-Ig, outer AB080 / inner AB400
B4: DVD2338 (bispecific antibody)
VH: QVQLQESGPGLVKPSEILSLTCTVSGGSISSHYWSWVRQPPGKGLEWIGYIYYSGSTNYNPSLKSRVTISVDTSKNQFSLNLSSVTAADTAVYYCARIPNYYDRSGYYPGYWYFDLWGRGTLVTVSSASTKGPEVQLVESGGGLVQPGGSLRLSCAASGFSLTNYGVHWVRQAPGKGLEWLGVGWSGGNTDYNTPFTSRLTINKDNSKNTVYLQMNSLRAEDTAVYYCARALTWYDYEFAYWGQGTLVTVSS
VL: QAVLTQPSSLSAPPGASASLTCTLRSGFNVDSYRISWYQQKPGSPPQYLLRYKSDSDKQQGSGVPSRFSGSKDASANAGILLISGLQSEDEADYYCMIWHSSAWVFGGGTKLTVLRQPKAAPDILLTQSPGTLSLSPGERATLSCRASQSIYTNIHWYQQKPGQAPRLLIKYASESISGIPDRFSGSGSGTDFTLTISRLEPEDFAVYYCQQNLNWPTTFGQGTKLEIK
notes: DVD-Ig, outer AB034 / inner AB400
B5: DVD2319 (bispecific antibody)
VH: EVQLVESGGGLVQPGGSLRLSCAASGFTFSIYSMNWVRQAPGKGLEWVSYISSSSSTIYYADSVKGRFTISRDNAKNSLYLQMNSLRDEDTAVYYCARDRGDFDAFDIWGQGTMVTVSSASTKGPEVQLVQSGGGLVKPGGSLRLSCAASGFTFSSYAMHWVRQAPGKGLEWVAVISYDGSNKYYADSVKGRFTISRDNSKNTLYLQMNSLRAEDTAVYYCARFSGWPNNYYYYGMDVWGQGTTVTVSS
VL: DIQMTQSPSSLSASVGDRVTITCQASQDITNYLNWYQQKPGKAPKLLIYDASNLETGVPSRFSGSGSGTDFTFTISSLQPEDIATYNCQQCENFPITFGQGTRLEIKRTVAAPDVVMTQSPLSLPVTPGEPASISCRSSQSLLHSNGFNYVDWYLQKPGQSPHLLIYFGSYRASGVPDRFSGSGSGTDFTLKISRVEAEDVGVYYCMQALQTPPWTFGQGTKVEIR
notes: DVD-Ig, outer AB063 / inner AB005
B6: DVD2323 (bispecific antibody)
VH: QVQLQQWGAGLLKPSETLSLTCAVYGGSFSGYYWSWIRQPPGKGLEWIGEINHSGSTNYNPSLKSRVTISVETSKNQFSLKLSSVTAADTAVYYCARDKWTWYFDLWGRGTLVTVSSASTKGPEVQLVQSGGGLVKPGGSLRLSCAASGFTFSSYAMHWVRQAPGKGLEWVAVISYDGSNKYYADSVKGRFTISRDNSKNTLYLQMNSLRAEDTAVYYCARFSGWPNNYYYYGMDVWGQGTTVTVSS
VL: DIEMTQSPDSLAVSLGERATINCRSSQSVLYSSSNRNYLAWYQQNPGQPPKLLIYWASTRESGVPDRFSGSGSGTDFTLTISSLQAEDVAVYYCQQYYSTPRTFGQGTKVEIKRTVAAPDVVMTQSPLSLPVTPGEPASISCRSSQSLLHSNGFNYVDWYLQKPGQSPHLLIYFGSYRASGVPDRFSGSGSGTDFTLKISRVEAEDVGVYYCMQALQTPPWTFGQGTKVEIR
notes: DVD-Ig, outer AB062 / inner AB005
B7: DVD2321 (bispecific antibody)
VH: EVQLLESGGGLVQPGGSLRLSCAASGFTFSHYVMAWVRQAPGKGLEWVSSISSSGGWTLYADSVKGRFTISRDNSKNTLYLQMNSLRAEDTAVYYCTRGLKMATIFDYWGQGTLVTVSSASTKGPEVQLVQSGGGLVKPGGSLRLSCAASGFTFSSYAMHWVRQAPGKGLEWVAVISYDGSNKYYADSVKGRFTISRDNSKNTLYLQMNSLRAEDTAVYYCARFSGWPNNYYYYGMDVWGQGTTVTVSS
VL: QSALTQPASVSGSPGQSITISCTGTSSDVGSYNVVSWYQQHPGKAPKLIIYEVSQRPSGVSNRFSGSKSGNTASLTISGLQTEDEADYYCCSYAGSSIFVIFGGGTKVTVLGQPKAAPDVVMTQSPLSLPVTPGEPASISCRSSQSLLHSNGFNYVDWYLQKPGQSPHLLIYFGSYRASGVPDRFSGSGSGTDFTLKISRVEAEDVGVYYCMQALQTPPWTFGQGTKVEIR
notes: DVD-Ig, outer AB116 / inner AB005
B8: DVD2333 (bispecific antibody)
VH: EVQLLESGGGLVQPGGSLRLSCAASGFTFSHYVMAWVRQAPGKGLEWVSSISSSGGWTLYADSVKGRFTISRDNSKNTLYLQMNSLRAEDTAVYYCTRGLKMATIFDYWGQGTLVTVSSASTKGPQVQLQESGPGLVKPSEILSLTCTVSGGSISSHYWSWVRQPPGKGLEWIGYIYYSGSTNYNPSLKSRVTISVDTSKNQFSLNLSSVTAADTAVYYCARIPNYYDRSGYYPGYWYFDLWGRGTLVTVSS
VL: QSALTQPASVSGSPGQSITISCTGTSSDVGSYNVVSWYQQHPGKAPKLIIYEVSQRPSGVSNRFSGSKSGNTASLTISGLQTEDEADYYCCSYAGSSIFVIFGGGTKVTVLGQPKAAPQAVLTQPSSLSAPPGASASLTCTLRSGFNVDSYRISWYQQKPGSPPQYLLRYKSDSDKQQGSGVPSRFSGSKDASANAGILLISGLQSEDEADYYCMIWHSSAWVFGGGTKLTVL
notes: DVD-Ig, outer AB116 / inner AB034

One assay has as its target T1, EGFR on the cell surface (human, UniProt P00533 25-1210).
T1 construct: whole, on cells
The experiment in a line: flow cytometry on cells, 2 ug/mL, C-terminal VD.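 Further: cells stained for 30 to 60 min on ice.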
In the case of B1, the “GEO MEAN” value amounted to 266.
Turning to B2, the “GEO MEAN” value worked out at 320.
On the same count and under the same terms, to B3 belongs 185; to B4, 252.

The next assay concerns the target T2, Recombinant Human MSP Receptor ECD-His tag (human, UniProt Q04912 25-957).
T2 construct: extracellular domain; bought reagent; also called RON
The experiment in a line: SPR (Biacore), C-terminal VD.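 Further: surface plasmon resonance with DVD-Ig proteins captured on an anti-IgG chip and recombinant antigen flowed over in HBS-EP buffer, Langmuir global fit, KD taken as koff/kon.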 Background: SPR reads the build-up and loss of mass on a sensor chip optically.
With B5, the binding result is reported as “no binding (tested: 10-200 nM)”.
The same measure, in the same setting: in the case of B6 it was “no binding (tested: 10-200 nM)”.
B7: the binding result is “no binding (tested: 10-200 nM)”.
Consider B8, for which the binding result is on record as “no binding (tested: 10-200 nM)”.

In the next assay the target is T3, Recombinant Human ErbB3/FC Chimera-His tag (human, UniProt P21860 20-643).
T3 construct: bought reagent
The experiment in a line: SPR (Biacore), N-terminal VD.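 Further: capture of antibodies or DVD-Ig proteins on an anti-mouse IgG chip surface, recombinant antigen injected at 10–200 nM in HBS-EP running buffer at 25 °C.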
Protocol: The BIACORE assay (Biacore, Inc, Piscataway, N.J.) determined the affinity of antibodies or DVD-Ig proteins with kinetic measurements of on-rate and off-rate constants. Binding of antibodies or DVD-Ig proteins to a target antigen (for example, a purified recombinant target antigen) was determined by surface plasmon resonance-based measurements with a Biacore® 1000 or 3000 instrument (Biacore AB, Uppsala. Sweden) using running HBS-EP (10 mM HEPES [pH 7.4], 150 mM NaCl, 3 mM EDTA, and 0.005% surfactant P20) at 25° C. […] For example, approximately 5000 RU of goat anti-mouse IgG, (Fcγ), fragment specific polyclonal antibody (Pierce Biotechnology Inc, Rockford, Ill.) diluted in 10 mM sodium acetate (pH 4.5) was directly immobilized across a CM5 research grade biosensor chip using a standard amine coupling kit according to manufacturer's instructions and procedures at 25 μg/ml. Unreacted moieties on the biosensor surface were blocked with ethanolamine. Modified carboxymethyl dextran surface in flowcell 2 and 4 was used as a reaction surface. Unmodified carboxymethyl dextran without goat anti-mouse IgG in flow cell 1 and 3 was used as the reference surface. For kinetic analysis, rate equations derived from the 1:1 Langmuir binding model were fitted simultaneously to association and dissociation phases of all eight injections (using global fit analysis) with the use of Biaevaluation 4.0.1 software. Purified antibodies or DVD-Ig proteins were diluted in HEPES-buffered saline for capture across goat anti-mouse IgG specific reaction surfaces. Antibodies or DVD-Ig proteins to be captured as a ligand (25 μg/ml) were injected over reaction matrices at a flow rate of 5 μl/minute. The association and dissociation rate constants, kₒₙ (M⁻¹s⁻¹) and koff (s⁻¹) were determined under a continuous flow rate of 25 μl/minute. Rate constants were derived by making kinetic binding measurements at different antigen concentrations ranging from 10-200 nM. The equilibrium dissociation constant (M) of the reaction between antibodies or DVD-Ig proteins and the target antigen was then calculated from the kinetic rate constants by the following formula: KD=koff/kₒₙ. Binding was recorded as a function of time and kinetic rate constants were calculated.
Usually Kd stands for the equilibrium constant for the complex coming apart. In general, koff refers to a measure of how fast the partners let go of each other. The term kon denotes the second-order rate constant of association. Regarding B5, the Kd was 5.4 nM, the koff stood at 0.0017 s⁻¹ and the kon stood at 310000 M⁻¹ s⁻¹.
Regarding B6, the Kd was determined as 7.7 nM, the off-rate (koff) was determined as 0.00046 s⁻¹ and the kon came out at 60000 M⁻¹ s⁻¹.
B7: the Kd is 12 nM, the dissociation rate constant (koff) amounted to 0.00031 s⁻¹ and the on-rate (kon) was determined as 25000 M⁻¹ s⁻¹.
For B8, the binding result was “no binding (tested: 10-200 nM)”.
